Target: T1, human CLC-7 with C-terminal tandem twin Strep-tag (human, UniProt P51798 1-805)
T1 sequence: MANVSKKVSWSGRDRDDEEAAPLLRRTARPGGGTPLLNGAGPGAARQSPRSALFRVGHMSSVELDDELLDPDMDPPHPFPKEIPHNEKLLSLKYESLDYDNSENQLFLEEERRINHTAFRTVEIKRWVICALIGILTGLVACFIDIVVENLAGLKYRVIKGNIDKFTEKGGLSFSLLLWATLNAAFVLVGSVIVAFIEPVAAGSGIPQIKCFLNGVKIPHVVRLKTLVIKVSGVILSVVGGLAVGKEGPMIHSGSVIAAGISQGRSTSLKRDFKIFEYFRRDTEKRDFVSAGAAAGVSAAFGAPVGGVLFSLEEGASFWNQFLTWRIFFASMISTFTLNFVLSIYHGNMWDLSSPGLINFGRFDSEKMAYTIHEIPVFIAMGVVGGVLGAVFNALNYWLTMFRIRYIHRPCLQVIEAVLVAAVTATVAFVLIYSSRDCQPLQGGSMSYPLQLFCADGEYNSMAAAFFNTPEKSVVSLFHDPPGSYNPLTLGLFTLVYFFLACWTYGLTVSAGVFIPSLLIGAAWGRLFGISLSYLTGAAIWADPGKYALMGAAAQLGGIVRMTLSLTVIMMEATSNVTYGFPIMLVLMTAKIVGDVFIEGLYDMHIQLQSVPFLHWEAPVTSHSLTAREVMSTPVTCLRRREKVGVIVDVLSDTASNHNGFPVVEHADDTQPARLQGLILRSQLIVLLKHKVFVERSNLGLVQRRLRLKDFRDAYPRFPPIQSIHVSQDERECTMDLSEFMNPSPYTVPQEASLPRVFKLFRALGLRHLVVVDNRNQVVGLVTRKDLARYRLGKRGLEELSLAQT
Test: cryo-EM structure

B1: human Ostm1, no tag (natural protein)
chain: ALPFGSSPHRVFHDLLSEQQLLEVEDLSLSLLQGGGLGPLSLPPDLPDLDPECRELLLDFANSSAELTGCLVRSARPVRLCQTCYPLFQQVVSKMDNISRAAGNTSESQSCARSLLMADRMQIVVILSEFFNTTWQEANCANCLTNNSEELSNSTVYFLNLFNHTLTCFEHNLQGNAHSLLQTKNYSEVCKNCREAYKTLSSLYSEMQKMNELENKAEPGTHLCIDVEDAMNITRKLWSRTFNCSVPCSDTVPVIAVSVFILFLPVVFYLSSFLHSEQKKRKLILPKRLKSSTSFANIQENSN
modifications: glycosylation (NAG) at Asn93, Asn128, Asn163, Asn184, Asn194, Asn216, Asn263
- binding result: binds
